This is an account of results in patent publication US20240400614A1, “CLEAVABLE PEPTIDES AND METHODS OF USE THEREOF” (Bright Peak Therapeutics AG, priority 2023, published 2024).

Common to all, as to assay type: biochemical
One experiment concerns the target Kallikrein-3 (Homo sapiens, UniProt P07288). The experiment can be described thus: FRET peptide cleavage efficiency with Kallikrein-3. The conditions noted are these: peptide 200 uM, Kallikrein-3 2 μg/ml, 37° C., pH 8.
The target of another experiment is uPA (Homo sapiens, UniProt P00749). The experiment can be described thus: FRET peptide cleavage efficiency with uPA. The conditions noted are these: 200 uM linker, 1 ug/ml protease, 37° C., buffer A pH 8.5.
A further experiment concerns the target T1, matriptase (Homo sapiens, UniProt Q9Y5Y6).
T1 construct: purchased R&D Systems 3946-SEB
T1 sequence (Q9Y5Y6 615-855 limits assumed): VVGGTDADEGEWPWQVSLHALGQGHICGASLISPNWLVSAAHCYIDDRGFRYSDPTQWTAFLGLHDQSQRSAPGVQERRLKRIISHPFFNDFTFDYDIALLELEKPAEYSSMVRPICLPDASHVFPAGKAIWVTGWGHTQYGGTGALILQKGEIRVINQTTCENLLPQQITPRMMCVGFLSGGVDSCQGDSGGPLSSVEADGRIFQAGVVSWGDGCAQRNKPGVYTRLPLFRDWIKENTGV
Briefly: FRET peptide cleavage efficiency with matriptase. The settings on record: 200 uM linker, 1 ug/ml protease, 37° C., buffer B pH 9.0.

The target in the next experiment is T2, MMP-2 (Homo sapiens, UniProt P08253).
T2 construct: purchased SIGMA PF023
T2 sequence (P08253 110-660): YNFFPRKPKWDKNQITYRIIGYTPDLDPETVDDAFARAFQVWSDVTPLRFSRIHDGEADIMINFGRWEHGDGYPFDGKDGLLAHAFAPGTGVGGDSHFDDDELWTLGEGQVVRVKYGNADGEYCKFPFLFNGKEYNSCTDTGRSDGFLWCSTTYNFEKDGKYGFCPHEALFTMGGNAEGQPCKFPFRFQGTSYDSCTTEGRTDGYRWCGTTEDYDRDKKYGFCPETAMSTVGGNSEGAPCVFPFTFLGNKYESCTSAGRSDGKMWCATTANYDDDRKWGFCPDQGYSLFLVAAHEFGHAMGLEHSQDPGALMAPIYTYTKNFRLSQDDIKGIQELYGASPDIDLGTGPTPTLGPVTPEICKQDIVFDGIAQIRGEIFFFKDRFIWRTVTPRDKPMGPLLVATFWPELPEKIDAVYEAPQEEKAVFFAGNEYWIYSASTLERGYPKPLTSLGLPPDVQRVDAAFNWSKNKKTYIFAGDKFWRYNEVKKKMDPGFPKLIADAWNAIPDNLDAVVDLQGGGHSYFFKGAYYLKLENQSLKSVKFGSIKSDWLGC
Briefly: FRET peptide cleavage efficiency with MMP-2.

A further experiment deals with T3, MMP-7 (Homo sapiens, UniProt P09237).
T3 construct: purchased SIGMA CC1059
T3 sequence (P09237 95-267): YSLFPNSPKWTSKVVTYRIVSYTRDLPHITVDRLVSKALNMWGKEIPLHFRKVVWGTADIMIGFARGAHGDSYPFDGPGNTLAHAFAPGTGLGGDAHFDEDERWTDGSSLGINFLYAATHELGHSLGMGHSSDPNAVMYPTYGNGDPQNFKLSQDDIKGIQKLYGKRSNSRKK
The experiment can be described thus: FRET peptide cleavage efficiency with MMP-7 (standard pH 7.5; also pH 6.5).

In the next experiment the target is T4, MMP-9 (Homo sapiens, UniProt P14780).
T4 construct: purchased SIGMA PF024
T4 sequence (P14780 94-707): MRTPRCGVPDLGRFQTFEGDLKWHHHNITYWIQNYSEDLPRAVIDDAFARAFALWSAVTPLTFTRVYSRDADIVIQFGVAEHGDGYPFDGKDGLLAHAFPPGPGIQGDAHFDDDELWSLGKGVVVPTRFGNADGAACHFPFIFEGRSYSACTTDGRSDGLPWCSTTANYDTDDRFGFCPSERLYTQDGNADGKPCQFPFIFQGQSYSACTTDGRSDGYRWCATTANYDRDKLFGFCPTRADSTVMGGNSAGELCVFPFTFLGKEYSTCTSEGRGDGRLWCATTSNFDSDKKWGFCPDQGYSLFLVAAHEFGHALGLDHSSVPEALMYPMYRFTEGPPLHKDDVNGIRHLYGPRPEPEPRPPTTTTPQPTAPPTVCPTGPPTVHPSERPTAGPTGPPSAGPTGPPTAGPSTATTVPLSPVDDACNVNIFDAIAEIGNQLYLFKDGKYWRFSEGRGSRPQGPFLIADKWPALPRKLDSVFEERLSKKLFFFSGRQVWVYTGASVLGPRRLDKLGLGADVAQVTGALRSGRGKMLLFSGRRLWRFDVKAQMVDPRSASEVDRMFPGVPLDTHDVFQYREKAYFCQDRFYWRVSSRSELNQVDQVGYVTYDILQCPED
The experiment can be described thus: FRET peptide cleavage efficiency with MMP-9 (standard pH 7.5; also pH 6.5).

Square brackets hold non-standard residues; d marks the D form. Ends that are not written are not given here. Tyr(3-NO2) = N[C@@H](Cc1ccc(O)c([N+](=O)[O-])c1)C(=O)O; 2Abz = Nc1ccccc1C(=O)O

Sequence of Kallikrein-3 (P07288 25-261, species assumed): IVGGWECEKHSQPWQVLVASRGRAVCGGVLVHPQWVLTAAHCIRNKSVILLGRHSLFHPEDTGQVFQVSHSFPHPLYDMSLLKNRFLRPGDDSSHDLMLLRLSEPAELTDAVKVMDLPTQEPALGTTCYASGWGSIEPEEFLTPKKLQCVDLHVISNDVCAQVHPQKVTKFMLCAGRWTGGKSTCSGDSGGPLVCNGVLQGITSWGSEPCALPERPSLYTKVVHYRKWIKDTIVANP

For “HSSKLQYFGKL ([2Abz]HSSKLQYFGKL[Tyr(3-NO2)]-NH2) [LNK061]”, in the experiment with Kallikrein-3 (t = 1 h), the “Kallikrein-3 t = 1 h % cleavage” value is on record as 0%. Also, the “Kallikrein-3 t = 3 h % cleavage” value in the experiment with Kallikrein-3 (t = 3 h) stood at 0%. Further, in the experiment with Kallikrein-3 (t = 6 h), the “Kallikrein-3 t = 6 h % cleavage” value is listed as 0%. Also, in the experiment with Kallikrein-3 (t = 8 h), the “Kallikrein-3 t = 8 h % cleavage” value turned out to be 0%. Moreover, the “% cleavage uPA t = 15 min” value in the experiment with uPA (t = 15 min) turned out to be 0%. Moreover, the “% cleavage uPA t = 60 min” value with uPA (t = 60 min) is recorded as 0%. In the experiment with uPA (t = 120 min), the “% cleavage uPA t = 120 min” value amounted to 0%. Moreover, in the experiment with matriptase (t = 15 min), the “% cleavage Matriptase t = 15 min” value worked out at 0%. For the same sequence, the “% cleavage Matriptase t = 60 min” value in the experiment with matriptase (t = 60 min) turned out to be 0%. Besides, the “% cleavage Matriptase t = 120 min” value with matriptase (t = 120 min) is on record as 0%. Also, the “% cleavage MMP-2 t = 15 min” value worked out at 23% with MMP-2 (t = 15 min (Table 9)) and 23% with MMP-2 (t = 15 min, 200 uM linker, 1 ug/ml protease, 37° C., buffer C pH 7.5). For the same sequence, the “% cleavage MMP-2 t = 60 min” value in the experiment with MMP-2 (t = 60 min (Table 9)) came to 74%; in the experiment with MMP-2 (t = 60 min, 200 uM linker, 1 ug/ml protease, 37° C., buffer C pH 7.5), 74%. Further, the “% cleavage MMP-2 t = 120 min” value with MMP-2 (t = 120 min (Table 9)) worked out at 100%; in the experiment with MMP-2 (t = 120 min, 200 uM linker, 1 ug/ml protease, 37° C., buffer C pH 7.5), 100%. The “% cleavage MMP-7 t = 15 min” value with MMP-7 (t = 15 min (Table 9)) was found to be 0%. For the same sequence, the “% cleavage MMP-7 t = 60 min” value with MMP-7 (t = 60 min (Table 9)) is recorded as 0%. Moreover, in the experiment with MMP-7 (t = 120 min (Table 9)), the “% cleavage MMP-7 t = 120 min” value is recorded as 0%. Moreover, in the experiment with MMP-9 (t = 15 min (Table 9)), the “% cleavage MMP-9 t = 15 min” value came out at 0%. In the experiment with MMP-9 (t = 60 min (Table 9)), the “% cleavage MMP-9 t = 60 min” value was 0%. In addition, the “% cleavage MMP-9 t = 120 min” value with MMP-9 (t = 120 min (Table 9)) is 0%.
